From the nanobody polyreactivity screen of Harvey et al. (2022)

assay: yeast display, Sf9 membrane polyspecificity reagent, FACS + sequencing; frameworks hold sequencing errors
In short: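 Genes from sorted yeast were amplified by colony PCR, read by MiSeq 2 × 250 sequencing and filtered on CDR length. These cells carried a synthetic nanobody library in Saccharomyces cerevisiae BJ5465 and were sorted by FACS into low and high (top ~1%) gates on anti-HA and streptavidin fluorescence. Polyreactivity is labelled according to the gate of origin.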

Sequence | polyreactivity (PSR sort gate)
QVNLVESGGGLVQAGCSLRITCADSGRTFKHNAMGWYRQAPGKERQLVAAISRRGGSTYFADSVKGRFTISRDNAKNTVYLQMNRLKPDDTAVYYCNAGYSTFLQYYGEVWKKGCYWGQGTQVTVSS | high polyreactivity
QVPLVESGGGLLQAGGSLRLSCSASGYTFSKYAMGWYRQAPGKERELVAAISFSGGSTYYADSVKGRFTISRDNAKNTVYLLMNSLKPEDTAVYYCDKYTITNYDYWGQGTLVTVSS | low polyreactivity
QVPLVESGGGLVQAGGSLRIRCAASGSIFAGNALGWYRQAPGKEWELVAAIARRGGSTYYADSVKGRFTISRDNAKNTVYLQMNSLKPEDTAVYYCNDLLRYAYHAAFGYWGQATQVTVSS | high polyreactivity
QVPLVESGGGLVQAGGSLRISCAASGSILQYYALGWYRQAPGKERELVASISSSSGSTYYADSVKGRFTISRDNAKNTVYLQMNSLKPEDTAVYYCNARGWTLAADFGYWGQATQVTVSS | low polyreactivity
QVPLVESGGGLVQAGGSLRISCAASGSTIVGYSMGWYRQAHGKERELVADITSGGGITYYADSVKGRFTISRDNAKNTVYLQMNSLKPEYSAVYYCAARVVEIFHWAGDYWGQGTQVTVSS | low polyreactivity
QVPLVESGGGLVQAGGSLRLSCAASGFIFSSNARGWYRQAPGKERELVARITWSDGSTYYADSVKGRFTISRDNAKKTVYLQMNSLKPEDTAVYYCAKGRDATHYEYYLYSMDYWGQGTQVTVSS | low polyreactivity
QVPLVESGGGLVQAGGSLRLSCAASGGIFRLYAMGWYRLAPGKEREVVASLSGDGDSTYYADSVQGRFTISRDNAKNTVYLQMNSLKPEDTAVYYCARQPYYFLSRPPYFRKYYYWGQGTQVTVSS | high polyreactivity
QVPLVESGGGLVQAGGSLRLSCAASGHTFRFYTMGWYRQAPGKEREFVAAIRRRTGSTYYADSVKGRFTISRDNAKNTVYLQMNSLKPEDTAVYYCAAESRYYYRFYYGYHYDYWGQGTQVTVSS | high polyreactivity
QVPLVESGGGLVQAGGSLRLSCAASGITFYYYTMGWYIQAPGKERELVAGITRGGRRYDADSVKGRFTISRDNAKNPVYLQMNSLKPEDTAVYYCNADDDIQYKGRYNYWGQGTQVTVSS | low polyreactivity
QVPLVESGGGLVQAGGSLRLSCAASGRIFGTNTMGWYRQAPGKEREWVAAITWSGGSTYYADSGTGRFTISRDNAKNPVYLQMNSLNPEDTAGYYCNVESAYAYHGPVDYWGQGTQVTVSS | low polyreactivity
QVPLVESGGGLVQAGGSLRLSCAASGRIFLRYDIGWYRKAPGKERELVAAIPRSGGSTYYADSVKGRFTISRDNAKNTVYLQMNSLKPEDTAVYYCAARRWGRVYTTYTGGYWGQGTQVTVSS | high polyreactivity
QVPLVESGGGLVQAGGSLRLSCAASGRIFYFNDMGWYRQAPGKERELVAAISRSGGSTYYADSVKGRFTISRDNAKNTVYLQMNSLKPEDTAVYYCAAGRDTWPSTYYYWGQGTQVTVSS | low polyreactivity
QVPLVESGGGLVQAGGSLRLSCAASGSTFTRYAMGWYRQAPGKEREFVAGISSRGSRTYYADSVKGRFTISRDNAKNTVYLQMNSLKPEDTAVYYCAVSGNHVSPPYGYWGQGTQLTVSS | high polyreactivity
QVPLVESGGGLVQAGGSLRLSCAASGSTFVRYAMGWYRQAPGKERELVAGISRVGNTYYADSVKGRFTISRDNAKNTVYLQMNSLKPEDTAVYYCARSQAVYDGWFAKFGYWGQGTQVTVSS | high polyreactivity
QVPLVESGGGLVQAGGSLRLSCAASGSTLGRYAMGWYRQAPGKERELVASITWSDDSTYYADSEKGRFTISRDNAKNTVYLQMNSLKPEDTAVYYCAAAGNLYTYRFYYWGQGTQVTLSS | low polyreactivity
QVPLVESGGGLVQAGGSLRLSCAASGSTLTSNAMGWYRQAPGKERELVAAIRSGGSTNYADSVKGRFTISRDNAKNTVYLQMNSLKPEDTAVYYCNTDFLWQGYGYSRVSYDYWGQGTQVTVSS | low polyreactivity
QVPLVESGGGLVQAGGSLRLSCAASGSTLWVYAMGWSRQAPGKERELVAAITQSTGDTHYADSVKGRFTISRDNAKNTVYLQMNSLKPEDTAVYYCAADSYLSVYDPYGDWGQGTQVTVSS | low polyreactivity
QVPLVESGGGLVQAGGSLSLSCAASGNIFPSYVMGWYSQAPGKERELVAAITGNGGSTYYADSVKGRFTISRDNAKNTVYLQMNSLTAEDTEVYYCATSAPRLLRYDSSSSPSYDNWGQGTKVTVSS | low polyreactivity
QVPLVESVGGLVQAGGSLRISCAASGGIFRYYAMGRYRQAPGNERELVAAITSSGTSTYYADSVKGRFTISRDNAKNTVYLQMNSLKPEDTAVYYCAAETYYSIYDYWGQGTQVTVSS | high polyreactivity
QVPVVASGGGFVQAGGRLRLSCAASGRTFFYNAMGWYRQAPGKERESTYYADSVKGRFTISRDNAKNTVYLQMNSLKPEDTAVYYFAAATAYVAYEGDKGDYWGQGTQVTVSA | low polyreactivity

Sequence | polyreactivity (PSR sort gate)
QVQFEESGGGLVQAGGSLRLSCAASGSTFQGYAMGWYRQAPGKERELVAAISRSGGRTYYADSVKGRFTISRDNAKNTVYLQMNSLKPEDTAVYYCAAEGHELTEGDSWGQGTQVTVSS | low polyreactivity
QVQFVESGGGLVQAGGSLRLSCAASGSIFALYAMGWYRQAPGKERELVAAISYRGGRTYYADSVKGRFTISRDNAKNTVYLQMNSLKPEDTAVYYCATDFPGKFDYWGQGTQVTVSS | low polyreactivity
QVQFVESGGGLVQAGGSLRLSCAASGSIFIYNAMGWYRQAPGTERELVAAISRGGTNTYYADSVKGRFTISRDNAKNTVYLQMNSLKPEDTAVYYCAARGGYIGSRNNYWGQGTQVTVSS | high polyreactivity
QVQHEDSGGGLVQAGGSHPLSCAASGSTFRVNAMGWYRQAPGKERELVAAISRRGGSTYYADSVKGRFTISRDNSKNTVYLQMNCLKPEDTAVYYCAAERLGTVQDDYWGQGTQVTVSS | high polyreactivity
QVQHEDSGGGLVQAGGSLRLSCAASGRIFLYYAMGWYRQAPGKERELVAAISSGTSTYYADSVKGRFTISRDNAKNTVYLQMNSLKPEDTAVYYCAAYYYSYPTNGGYGYWGQGTQVTVSS | low polyreactivity
QVQHEESGGGLVQAGGSLRISCAASGTTFFTYAMGWYRPAPGKEREFVAAISWSDDSTYYADSVKGRFTISRDYAKNTVYLQMNSLKPEDTAVYYCAAEWGQRGGGGYYYWGQGTQVTVSS | low polyreactivity
QVQHVASGGGLVQAGGSLRLSCAASGSTFVYYAMGWYRQAPGKERELFADITKSGGSTFYAESVKGRFTISRDNAKNTVYLQMNSLKPEDTAVFYCGARYKGQYYRQGRHDYWGQGSQVTVSS | high polyreactivity
QVQHVDSGGGLVQAGGSLRLSCAASGFIFSYYAMGWYRQAPVKERELVAGISYNGDRTYYADSVKGRFTISRDNAKNTFYLQMKSLKPEDTAVYYCNVVWVLGGWYDLEYDYWGQGTQVTVSS | high polyreactivity
QVQHVDSGGGLVQAGGSLRLSCAASGRILYSYAMGWYRQAPGKERELVAVITTRGGTYYADSVKGRFTISRDNAKNTVYLQMNSLKPEDTAVYYCNARRYPSYKYDYWGQGTQVTVSS | high polyreactivity
QVQHVESAGGLVQAGGSLPLRCAASGSTFSPNALGGYSHAHGKERELVARITRSGSRTSYADSLKGRFTISRDNAKNPVYFQMNSLKPEDTAVYYCAAEGPKQYDYWGQGTHVTVSS | low polyreactivity
QVQHVESAGGLVQAGGSLRLSCAASGRTFDYNAMGWYRQAPGKERELVAAISWRGGNTYYADSVKGRFTISRDNAKNTVYLQMNSLKPEDTAVYYCGAVYRYSTRNYGYWGQGTQVTVSS | high polyreactivity
QVQHVESAGGLVQAGGSLRLSCAASGSIFPYNAMGWYRQAPGKERELVAAISYSGSTTYYADSVKRRFTISRDNSKNTVYLQMNSLKPEDTAVYYCNTLSWYQYDYWGQGTQVTVSS | high polyreactivity
QVQHVESGGALVQAAGSLSLRCAASGSTFGYNAMGWYRQAPSKEMELVAVITDSGGSSYYADSVKGRFTISRDNPKNTVYVQMHSLNPEDTAVYYCAKFYGLVVSGHVILSGFEYWGQGTLVTVSS | low polyreactivity
QVQHVESGGALVQAGGSLRLSCAASGLIYALSAMGWDRQAPGKEMELVAAIDWSGGSTYYADSVKGRFTISRDNAKNTVYVQMNCLKPEDTAVYYCAADISSSPGNDYWGQGTQLTVSS | high polyreactivity
QVQHVESGGCLVQAGGSLRLSCAASGITFEWYAMGWYRQAPGKESELVADITSGDSTNYADSVKGRFTISRDNAQNTVYLQMNSLKPEDTAVYYWAATFIGQFFSWYYYWGQGTQVTVSS | low polyreactivity
QVQHVESGGDLVQAGGSLRLSCAASGSTSFHNAMGWDIQAPGKEREFVAAMSGSGDRTNYADSVKGRFTISRDNAKNTVYLQMNSLKPEDTAVYYCAARGQPGRRTSSGFFSGGYWGQGTQVTVSS | high polyreactivity
QVQHVESGGGLDQAGGSLRFSCAASGTIFVYNAMGSYREAPGKERELVAAMDTVGSTNYADSVKGRFTISRDNAKNTVYLQMNSLKPEDTAVYYCAVVTPYWSFFEQVIPSNYWGQGSQVTVSS | low polyreactivity
QVQHVESGGGLDQAGGSLRLSCAASGFIFGWYAMGWYRPAPGKERELVAAITWSGVRTYYADSVKGRFTISRDNAKNTVYLQMHSLKPEDTAVYYCARAGGSVGRGYKDQDGRGDYWGQGTEVTVSS | low polyreactivity
QVQHVESGGGLDQAGGSLRLSCAASGFIFYDYMGWDRQAPGKQRELVAVISYSGSSTNYAYSVKGRFTITRDNAKMTVYLQINSLKPEDTAVYYWAARIVNGWDYDFWGQGSQVTVSS | low polyreactivity
QVQHVESGGGLFQAGGSLRLSCAASGITFEYYAMGWYRQAPGKERELVAAISGDGSTYYADSVKGRFTISRDNAKNTVYLQMNSLKPEDTAVYYCAAVYYRGFLYYRYYYWGQGTQVTVSS | high polyreactivity
